Test results as given in paper PMC4780765, “Role of Interaction and Nucleoside Diphosphate Kinase B in Regulation of the Cystic Fibrosis Transmembrane Conductance Regulator Function by cAMP-Dependent Protein Kinase A” (PLoS ONE, 2016).
One block for each binder: values may come before it.

Key:
[1] = biological target: T1, cystic fibrosis transmembrane conductance regulator (human (endogenous in 16HBE14o-), UniProt P13569 1-1480); test: far-Western, overlay or dot blot; blot of a CFTR immunoprecipitate or of 16HBE14o- membrane proteins, 100 μg, overlaid with 1 μg recombinant NDPK-B without or with cAMP or 8-Br-cAMP (100 μM); probed for NDPK-B; settings: one partner purified
T1 construct: CFTR, endogenous in the wild type human bronchial epithelial cell line 16HBE14o-; band at 175 kDa; also called CFTR; ABCC7; source: endogenous, 16HBE14o- cells (membrane fraction, lysates, immunoprecipitates)

[2] = biological target: T1, cystic fibrosis transmembrane …; test: far-Western, overlay or dot blot; blot of SDS-PAGE-separated 16HBE14o- membrane proteins (100 μg) overlaid with 16HBE14o- cytosol proteins (0.5 mg) in TBS with 5% milk, 60 min at room temperature, without or with cAMP, 8-Br-cAMP or dioctanoyl-cAMP (100 μM); probed for NDPK-B; settings: partners not purified
[3] = biological target: T1, cystic fibrosis transmembrane …; test: co-IP; CFTR or NDPK-B immunoprecipitates from 16HBE14o- membranes; cells untreated, treated with FSK (10 μM)/IBMX (100 μM) for 30 min, or with PKI (100 nM) or H-89 (1 μM) for 5 min before FSK/IBMX; settings: partners not purified

T1 sequence (P13569 whole entry): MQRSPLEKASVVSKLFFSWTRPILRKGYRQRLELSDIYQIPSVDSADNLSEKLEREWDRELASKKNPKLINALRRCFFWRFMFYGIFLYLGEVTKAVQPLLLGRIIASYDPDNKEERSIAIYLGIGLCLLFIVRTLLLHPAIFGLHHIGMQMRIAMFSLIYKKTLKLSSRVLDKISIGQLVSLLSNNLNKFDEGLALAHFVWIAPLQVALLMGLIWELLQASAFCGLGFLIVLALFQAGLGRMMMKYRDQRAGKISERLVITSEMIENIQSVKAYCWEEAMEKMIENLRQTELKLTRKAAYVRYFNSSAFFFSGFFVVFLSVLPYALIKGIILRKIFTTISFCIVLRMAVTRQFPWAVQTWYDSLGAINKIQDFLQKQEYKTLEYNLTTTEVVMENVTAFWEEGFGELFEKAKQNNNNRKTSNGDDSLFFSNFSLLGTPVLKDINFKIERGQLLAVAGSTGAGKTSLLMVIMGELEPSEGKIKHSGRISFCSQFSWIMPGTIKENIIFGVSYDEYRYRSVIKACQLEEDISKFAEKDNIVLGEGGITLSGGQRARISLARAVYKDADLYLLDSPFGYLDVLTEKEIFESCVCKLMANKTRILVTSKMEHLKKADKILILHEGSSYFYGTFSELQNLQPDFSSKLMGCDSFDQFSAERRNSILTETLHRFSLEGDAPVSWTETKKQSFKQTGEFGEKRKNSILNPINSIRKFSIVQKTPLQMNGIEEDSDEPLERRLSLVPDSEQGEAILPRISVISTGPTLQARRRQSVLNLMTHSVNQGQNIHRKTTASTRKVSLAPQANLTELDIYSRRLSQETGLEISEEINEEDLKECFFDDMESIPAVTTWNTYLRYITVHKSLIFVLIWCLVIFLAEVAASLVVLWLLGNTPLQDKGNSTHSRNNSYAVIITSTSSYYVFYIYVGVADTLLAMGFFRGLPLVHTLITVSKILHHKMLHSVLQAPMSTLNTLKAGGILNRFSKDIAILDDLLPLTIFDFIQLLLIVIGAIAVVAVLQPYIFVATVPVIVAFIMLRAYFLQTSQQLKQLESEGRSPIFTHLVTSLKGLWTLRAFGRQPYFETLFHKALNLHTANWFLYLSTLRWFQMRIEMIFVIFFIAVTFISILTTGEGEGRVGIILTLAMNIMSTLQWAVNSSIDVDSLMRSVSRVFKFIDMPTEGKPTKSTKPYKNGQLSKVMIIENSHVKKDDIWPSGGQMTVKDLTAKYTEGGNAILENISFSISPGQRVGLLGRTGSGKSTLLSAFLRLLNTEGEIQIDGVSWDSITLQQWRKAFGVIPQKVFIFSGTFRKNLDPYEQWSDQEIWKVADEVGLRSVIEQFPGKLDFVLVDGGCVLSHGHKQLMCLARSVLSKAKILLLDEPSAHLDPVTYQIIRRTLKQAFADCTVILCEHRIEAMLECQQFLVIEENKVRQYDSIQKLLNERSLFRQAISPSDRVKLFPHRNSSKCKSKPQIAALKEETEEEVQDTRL

fold increase of NDPK-B staining at 175 kDa with 8-Br-cAMP (100 μM) over overlay without cAMP [1]: 20 fold
B1: human recombinant nucleoside diphosphate kinase B isoform (natural protein)
chain: ANLERTFIAIKPDGVQRGLVGEIIKRFEQKGFRLVAMKFLRASEEHLKQHYIDLKDRPFFPGLVKYMNSGPVVAMVWEGLNVVKTGRVMLGETNPADSKPGTIRGDFCIQVGRNIIHGSDSVKSAEKEISLWFKPEELVDYKSCAHDWVYE
notes: human recombinant nucleoside diphosphate kinase B (NDPK-B, NM23-H2); 16 kDa on the gel; also called NDPK-B; purified NDPK-B; source: recombinant, purified; prepared and provided by Professor Ioan Lascu

fold increase of NDPK-B staining at 175 kDa with dioctanoyl cAMP (100 μM) over overlay without cAMP [2]: 20 fold
fold increase of co-immunoprecipitation with FSK/IBMX over untreated cells [3]: 3 fold
B2: nucleoside diphosphate kinase B (natural protein, human (endogenous in 16HBE14o-), UniProt P22392 1-152, looked up)
chain: MANLERTFIAIKPDGVQRGLVGEIIKRFEQKGFRLVAMKFLRASEEHLKQHYIDLKDRPFFPGLVKYMNSGPVVAMVWEGLNVVKTGRVMLGETNPADSKPGTIRGDFCIQVGRNIIHGSDSVKSAEKEISLWFKPEELVDYKSCAHDWVYE
notes: nucleoside diphosphate kinase B (NDPK-B, NM23-H2), endogenous in the human bronchial epithelial cell line 16HBE14o-; also called NDPK-B; NDPK B; source: endogenous, 16HBE14o- cells (membrane and cytosol fractions, lysates)
